The nanobody polyreactivity screen of Harvey et al. (2022)

Assay: yeast display, Sf9 membrane polyspecificity reagent, FACS + sequencing; frameworks hold sequencing errors
Procedure, shortened: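 Galactose induction of a Saccharomyces cerevisiae BJ5465 synthetic nanobody display library ran 36–48 hours. The cells were then stained for 1 hour at 4 °C with 10% biotinylated, detergent-solubilized Sf9 membrane reagent, pulled down on streptavidin microbeads and FACS-sorted into low and high (top ~1%) gates on expression and reagent-binding fluorescence. Labels for polyreactivity follow the gate of origin.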

QVQLVESGGGLVQAGGSLRLSCAASGYIFGWYAMGWYRQAPGKERELLATIDWSGDSTYYADSVKGRFTISRDNAKNTVYLQMNSLKPEDTAVYYCAVGYVVDTWDEYDYWGQGTQVTVSS
polyreactivity (PSR sort gate): low polyreactivity

QVQLVESGGGLVQAGGSLRLSCAASGSIFERYDMGWYRQAPGKERELVAAITSAGITYYADSVKGRFTISRDNAKNTVYLQMNSLKPEDTAVYYCAAQGRRGAPYRHVIEGDYWGQGTQVTVSS
polyreactivity (PSR sort gate): low polyreactivity

QVQLVESGGGLVQAGGSLRLSCAASGFTFSGYAMGWYRQAPGKERELVAVIRGRGGRTYYADSVKGRFTISRDNAKNTVYLQMNSLKPEDTAVYYCAARRDAYYYVPNRFDYWGQGTQVTVSS
polyreactivity (PSR sort gate): high polyreactivity

QVQLVESGGGLVLAGGTLRISCAASGSIFYRNTMGWYRLAPVKERELVAAITRGGGRTYYADSVKARFTISRDTAKNTVFLQMNSLKPEDSAVYYCAVQAFSHTSSRMDYWGQGSQVTVSS
polyreactivity (PSR sort gate): high polyreactivity

QVQLVESGGGLVQAGGSLRLSCAASGSTFPVYAMGWYRQAPGKERELVASISSGGSTYYADSVKGRFTISRDNAKNTVYLQMNSLKPEDTAVYYCAKDPWVESFVIYDYWGQGTQVTVSS
polyreactivity (PSR sort gate): low polyreactivity

QVQLVESGGGLVQAGGSLRLSCAASGRTFVANGMGGYRQAPGKERELVAAINYGDDTYYADSVKGRFTISRDNAKNTVYLQMNSQKPEDTAFYFLAADIIYGYEVYTYTSDYWGQGTQVTVSS
polyreactivity (PSR sort gate): low polyreactivity

QVQLVESGGGLVQAGGSLRLSCAASGSTFNEYVMGWYRQAPGKERELVAAITGGGGRTYYADSVKGRFTISRDNAKNTVYLQMNSQKPEDTAVYYCAKRYLYGTYWGFFRYDYWGQGTQVTVSS
polyreactivity (PSR sort gate): low polyreactivity

QVQLVESGGGLVQAGGSLRLSCAASGRTFIYYAMGWSRQAPGKERELVAGISRNGGRTYYADSVKGRFTISRDNAKNTVYLQMNSLKPEDTAVYYCNAYPPSRHDYLGQGTQVTVSS
polyreactivity (PSR sort gate): high polyreactivity

QVQLVESGGGLVQAGGSLRLICAPSGRITLRYAIGWYRQAPRKERDFVAAITVSGGSTYYADSVKGRFTISRDNAKNTVYLMMNRLKPEDTAVYYCAVRQKTQYGSKHDYWGQGTQVTVSS
polyreactivity (PSR sort gate): high polyreactivity

QVQLVESGGGLVQAGGSLRLSCAASGNTLYQYAMGWYRQAPGKERELVAAISGIGDSTYYADSVKGRFTISRDNAKNTVYLQMNSLKPEDTAVYYCAADGEYRYDLEYESWGQGTQVTVSS
polyreactivity (PSR sort gate): low polyreactivity

QVQLVESGGGLVQAGGSLRLSCAASGRTFRYYAMGWYRQAPGKERELVAVITQSGGRTYYADSVKGRFTISRDNAKNTVYLQMNSLKPEDTAVYYCNAVFPGFFRSSPTYDYWGQGTQVTVSS
polyreactivity (PSR sort gate): high polyreactivity

QVQLVESGGGLVQAGASLRLSCAASGRTFVGYAMGWYRQAPGKERELVAAISKSSGSTYYADSVKVRFTISRDNAKNTVYLQMNSLKPEDTAVYYCNAARRQCNRYTYDYWGQGTLVTVSS
polyreactivity (PSR sort gate): high polyreactivity

QVQLVESGGGLVQAGCSLRLSCAASGRIFASNPMGWYRQAPGKERELVAGISRNGGSTFYADSVKGRFTISRDNAKNTVDVQMHSLKPEDTEVYYCARYFTHSGGYRDRIYYYWGQGTQVTVSS
polyreactivity (PSR sort gate): low polyreactivity

QVQLQVSGGDLVQAGGSLRLSCAASGTIYGLTSMGWYRQAPGKEREFVAAITDGGNTNYADSVKGRFTISRDNAKNSVYLQMISLTPEDTAVYYCALLFSDEAYYAYCGQGTQVTVSS
polyreactivity (PSR sort gate): low polyreactivity

QVQLVESGVGLVQAGGSLRLSCAASGRIFRRYVMGWYRQAPGKEREFVAAITSRGGRTYYADSVKGRFTISRDNAKNTVYLQMNSLKPEDTAVYYCAARYSRSMDYWGQGTQVTVSS
polyreactivity (PSR sort gate): high polyreactivity

PVQLVEAGGGLVQAGGSLRLSCAASGFTIRIYTMGWYRQAPGKERELVAAISSRGGSTYYADSVKGRFTISRDNAKITVYLQMNSLKPEDTAVYYCAKTPYYRYAKQRYTSSHDYWGQGTQVTVSS
polyreactivity (PSR sort gate): high polyreactivity

QVQIVESGGGLVQAGRSLRLSCAASGFIFFPYVMGWYRPAPVKERELVARITSGGGSTYYADSVKGRFSISRDNAKNTVYLEMYSLKPEDTAVYYCAARFRFPPSYDYWGQCTQVTVSS
polyreactivity (PSR sort gate): high polyreactivity

QVQLVESGGGLVQAGGSLRLSCAASGRIFVYYAMGWYRQAPGKERELVAAITYSVDSTYYADSVKGRFTISRDNAKNTVYLQMNSLKPEDTAVYDCATDVDWAYGYQYEYWGQGTQVTVSS
polyreactivity (PSR sort gate): low polyreactivity

QVQLVESGGGLVQAGGSLRLSCAASGFTFFRNAIGWYRQAPGKERELVAAISGSGGSTYYADSVKGRFTISRDNAKNTVYLQMNSLKPEDTAVYYCAARTSYYVYRHPSGRYDYWGQGTQVTVSS
polyreactivity (PSR sort gate): low polyreactivity

QVQLVESGGGLVQAGGSLRLSCAASGSTFYYNAMGWYRQAPGKERELFAAITFTGGSTYADSVKGRFTISRDNAKNTVYLQMNSLKPEDTAVFYCAATIQGHDYLGSGYDYWGQGTQVTVSS
polyreactivity (PSR sort gate): low polyreactivity

QVQLVESGGGLVQAGGSLRLSCAASGNIFQAYAMGWSRQAPGKERELVATIRTYADYVKGRFTISRDNAKNTVYLQMNSLKPEDTAVYYCAAQNAMYYDSYSGYDSWGQGTQVTVSS
polyreactivity (PSR sort gate): low polyreactivity

QVQLVESGGGLVQAGGSLRLSCAASGFTIDSYAMGWYRQAPGTERELVAAISYRGGTTYYADSVKGRFTISRDNAKNTVYLQMNSLKPEDTAVYYCNRMWKYGFNYWGQGTQVTVSA
polyreactivity (PSR sort gate): high polyreactivity

QVQLVESGGGLVQAGGSLRLSCAASGLTFKVYDMGWYRQAPGKERELVAAISWSGGSTYYADSVKGRFTISRDNAKNTVYLQMNSLKPEDTAVYFCAVEPSYYVVFFPYEYWGQGTQVTVSS
polyreactivity (PSR sort gate): low polyreactivity

QVQLVESGGGLLHAGGSLRLSCAASGRTFDHYAMGWYRQAPGKERELVAAISSRGSSTYYADSVKGRFTISRDNAKNTVYLQMNSLKPEDTAVYYCAAKYIRDYTSNPRGYWGHGTQVTVSS
polyreactivity (PSR sort gate): high polyreactivity

QVQLVESGGGLVQAVGSHRLSCAASGFIFTSYAMGCYRQAPGKERELVAAITRSGGRTYYADSVKGRFTISRDNAKNTVYLQMNSLKPEDTAVYYCAAVTFYQSPARGYWGQGTQVTVSS
polyreactivity (PSR sort gate): high polyreactivity

QVQLVESGGGLVQAGGSLRLSCAASGFILKPNAMGWYRQAPGKERELVAAISWSSGSTYYADSVKGRFTISRDNAKNTVYLQMNSLKPEDTAVYYCAKDLTQIYYGDDYWGQGTQVTVSS
polyreactivity (PSR sort gate): low polyreactivity

QVHLVESGGGLVQAGGSLRLSCAASGRIFYYYAMGWYRQAPGKERELVAGITITDASTYYADSVKGRFTISRDYAKNTVYLQMNSLKPEYTAVYYCNAVRYWEGRRYYYWGQGTQVTVSS
polyreactivity (PSR sort gate): high polyreactivity

QVQLVESGGGLVQAGGSLRLSCAASGRTFATNAMGWYSQAPGKERELVAGINGSGSTNYADSVKGRFTISRDNAKNTVYLQMNSLKPEDTAVYYCAAYVGLYYRLHYYYWGQGTQVTVSS
polyreactivity (PSR sort gate): low polyreactivity

QVQLVESGGGLVQAGGSLRLSCAASGSIFPLYAMGWYRQAPGKERELDASITWSAGNTHYADSVKGRFTISRDNAKNTVYLQMNSLKPEDTAVYYCAADDLWLYYVDDLPINDFDYWGQGTQVTVSS
polyreactivity (PSR sort gate): low polyreactivity

QVQLVESGGGLVQAGGSLRLSCAASGFIFRYYAMGWYRQAPGKERELVAAISSRAGRTYADSVKGRFTISRDNAKYSVYLQMNSLKPEDTAVYYCAVRSKRKDVGYWGQGTQVTVSS
polyreactivity (PSR sort gate): high polyreactivity

QVQLVESGGGLVQAGGSLRLTCAASGSTFYSYVMGWYRQAPGKERELVAAIDYSGDSTYYADSVKGRFTISRDNAKNTVYLQMNSLKPEDTAVYYCAKDGVWYYSGTGMDYWGHGTQVTVSS
polyreactivity (PSR sort gate): low polyreactivity

QVQLVESGGGLVQAGGSLRLSCAASGFTFVRYAMGWYRQAPGKERELVAAISSGGRTYYADSVKGRFTISRDNAKNTVYLQMNSLKPEDTAVYYCAAEKVGTRPSRDYDYWGQGTQVTVSS
polyreactivity (PSR sort gate): high polyreactivity

QVQLVQSGGGLVQAGGSLRLSCAASGRTFYYYPMGWYRPAPGKERELVAAIRWRGGRTYADSVKGRFTISRDNAKNTVYLQMNSLKPEDTAVYYCAVESFYRHASLYDYWGQGTQVTVSS
polyreactivity (PSR sort gate): high polyreactivity

QVQLVESGGGLVQAGGSLRLSCAASGFISAYYAMGWYRQAPGKERELVAAISWNGGRTFYADSVKGRFTISRDNAKNTVYLQMNSLKPEDTAVYYCAADGRLRGYGYWGQGTQVTVSS
polyreactivity (PSR sort gate): high polyreactivity

QVQLVESGGGLVQAGGSLRLSCAASGSSKLMLWDGIDRRLGKKGSWLPLFVLVVLRNYSDSVKGRFTISRDNAKNTVYLQMNSLKPEDTAVYYCAATPIGSGGWGDYWGQGTQVTVSS
polyreactivity (PSR sort gate): low polyreactivity

QVQLVESGGGLVQAGGTLRLSCAASGGIFLYYAMGWYRQAPGKERELVATISSGGSTKYADSVKGRFTISRDNAMNTVYLQMNSLKPEDTAVYYCNKVFPNLYIYVVRGLIEMDYWGQGTQVTVSS
polyreactivity (PSR sort gate): low polyreactivity

QVQLVESGGGLVQEGGSLRLSCAASGNIFTTYAMGWYRQAPGKERELVAAISRSGGRTNYADSVKGRFTISRDNAKNTVYLQMNSLKPEDTAVYYCNRALKPVDSYAYGYWGQGTQVTVSS
polyreactivity (PSR sort gate): high polyreactivity

QVQLVASGGGLVQAGGSLRLSCAASGLIFYIYMGWYRQGPGKERELVAVISSSGNSTYYADSVKGRFTISRDNAKNTVYLQMNSLKQEDTAVSYCNASAYYPPSSSRYDYWGQGTQVTVSS
polyreactivity (PSR sort gate): low polyreactivity

QLQLVESGGGLVQAGGSLRISCAASGSTFFLNAMGWYRQAPGKERELVAAITSGSGNTYYADSVKGRFTISRDNAKNTVYLQMNSLKPADSAVYYCNVTRFVYRPYGLDRDDYWGQGTQGTVSS
polyreactivity (PSR sort gate): low polyreactivity

QVQLVESGGGLVQAGGSLRLSCAASGRTFSGYAMGWYRQAPGKERELVAAISNSGGRTYYADSVKGRFTISRDNAKNTDYLQMNSLKPEDTAVYYSNAVSYWRYDYWGQGTQVTVSS
polyreactivity (PSR sort gate): high polyreactivity

QVQLVESGGGLVQAGGSLRFSCAASGGTFFLNVMGWYRPAPGKERELVAAITNSAGSTYYADSVKGRFTISRDNAKNTVYLQMNSLKPEDTAVYYCATDWSKVAGYTSYDYWGQGTQVTVSS
polyreactivity (PSR sort gate): low polyreactivity

QVQLVESGGGLVQAGGSLRLSCAASGRIFTFYAMGWYRQAPGKERELVATIRNGGSTNYADSVKGRFTISRDNAKNTVYLQMNSLKPEDTAVYYCNTYYYGRRRYGYWGQGTQVTVSS
polyreactivity (PSR sort gate): high polyreactivity

QFQLVESGGGLDQAGGSLRISCAPSGITFEYYTMGLYRQAPGKEIEFVAAITQGGGTTYYADSVKGRFTISRDNEKNTVYLQMNSLKPEDTAVYYCAAYVGYLLLYYPTYYYWGQGTQVTVSS
polyreactivity (PSR sort gate): low polyreactivity
